The record followed here is US9533026B2, “Polypeptide compounds for inhibiting angiogenesis and tumor growth” (VasGene Therapeutics, Inc., priority 2004, dated 2017).

Like-named read-outs stand apart in the source and are kept apart here.

Series [1] addresses T1, EphrinB2 (Homo sapiens, UniProt P52799).
T1 construct: protein fusion of Ephrin B2 ectodomain with placental alkaline phosphatase
The series can be described thus: EphrinB2 (B2-AP) binding assay on affinity magnetic beads. To be noted: SP column fractions 1, 2 and 3. An excerpt:
To test whether the B4-HSA fusion property retained the ability of the EphB4 extracellular domain to bind to EphrinB2, the ability of the purified B4-HSA fusion was compared to that of GCF2F, GCF2, GC, CF and B4-Fc fusion, which comprises the extracellular domain of B4 fused to hIgG1 Fc as described in Example 1. Biotinylated or His-tag protein samples were inoculated with the corresponding affinity magnetic beads and B2-AP for an hour at room temperature, before addition of PnPP. Results of binding assays are shown on FIG. 67.
Fractions 1, 2 and 3 of biotinylated and PEGylated sB4 from the SP column purification, corresponding to polypegylated, monopegylated and unpegylated biotinylated sB4, were tested for their ability to bind EphrinB2 using the standard assay. Results of this experiment are shown on FIG. 72.

A short description of series [2]: In vitro stability in mouse serum (retained B2-AP binding). It counts as in vitro ADME. As for the experimental part: Both soluble EphB4 ectodomain protein (sB4) and EphB4 ectodomain fused to HSA (HSA-sB4) were biotin labeled through carbohydrate chains using sodium meta-periodate as an oxidant and EZ-Link Biotin Hydrazide (PIERCE, Cat. #21339) according to manufacture's protocol. The in vitro stability of the biotinylated sB4 protein was tested by incubating […] with 40 μL of mouse serum at 37° C. for 0, 0.5, 1, 2 and 3 days. Two μL of magnetic beads and B2-AP was added for an extra hour at room temperature. After washing twice with buffer, pnPP was added for 1 hour.
The fractions were also tested for their stability in vitro. The fractions were tested for retention of EphrinB2 binding activity after incubation in mouse serum at 37° C. for three days.

The target in series [3] is T1, EphrinB2. The experiment in a line: Ephrin B2-AP binding to immobilized EphB4EC proteins. To be noted: B4 proteins immobilized on Ni2+-resin or nitrocellulose. As for the experimental part:
10 μl of Ni-NTA-Agarose were incubated in microcentrifuge tubes with 50 μl of indicated amount of B4ECv3 diluted in binding buffer BB (20 mM Tris-HCl, 0.15 M NaCl, 0.1% bovine serum albumin pH 8) After incubation for 30 min on shaking platform, Ni-NTA beads were washed twice with 1.4 ml of BB, followed by application of 50 μl of B2-AP in the final concentration of 50 nM. Binding was performed for 30 min on shaking platform, and then tubes were centrifuged and washed one time with 1.4 ml of BB. Amount of precipitated AP was measured colorimetrically after application of PNPP.
To confirm ability of the purified recombinant proteins to bind Ephrin B2, they were tested in an in vitro binding assay. As expected, GC, GCF1 and GCF2, but not CF2 are binding the cognate ligand Ephrin B2 as confirmed by interaction between Ephrin B2-alkaline phosphatase (Ephrin B2-AP) fusion protein with the B4 proteins immobilized on Ni^2+-resin or on nitrocellulose membrane (FIG. 17).

In a further series the test system is EphB4 receptor. The series can be described thus: Cell-based EphB4 tyrosine kinase assay in PC3 cells. To be noted: Ephrin B2-Fc ligand preincubated with protein. On the set-up: species or system human. As for the experimental part:
All four proteins were also tested for their ability to block ligand-dependent dimerization and activation of Eph B4 receptor kinase in PC3 cells. The PC3 human prostate cancer cell line is known to express elevated levels of human Eph B4. Stimulation of PC3 cells with Ephrin B2 IgG Fc fusion protein leads to a rapid induction of tyrosine phosphorylation of the receptor. However, preincubation of the ligand with GCF2, GCF1 or GC, but not CF2 proteins suppresses subsequent EphB4 autophosphorylation.
The human prostate carcinoma cell line PC3 cells were maintained in RPMI medium with 10% dialyzed fetal calf serum and 1% penicillin/streptomycin/neomycin antibiotics mix. Cells were maintained at 37° C. in a humidified atmosphere of 5% CO2/95% air. Typically, cells were grown in 60 mm dishes until confluency and were either treated with mouse Ephrin B2-Fc fusion at 1 μg/ml in RPMI for 10 min to activate EphB4 receptor or plain medium as a control. To study the effect of different derivatives of soluble EphB4 ECD proteins on EphB4 receptor activation, three sets of cells were used. In the first set, cells were treated with various proteins (5 proteins; GC, GCF1, GCF2, GCF2-F, CF2) at 5 μg/ml for 20 min. In the second set of cells, prior to application, proteins were premixed with ephrinB2-Fc at 1:5 (EphB4 protein:B2-Fc) molar ratio, incubated for 20 min and applied on cells for 10 min. In the third set of cells, cells were first treated with the proteins for 20 min at 5 μg/ml, media was replaced with fresh media containing 1 μg/ml of EphrinB2-Fc and incubated for another 10 min.
After the stimulation, cells were immediately harvested with protein extraction buffer containing 20 mM Tris-HCl, pH 7.4, 150 mM NaCl, 1% (v/v) Triton X100, 1 mM EDTA, 1 mM PMSF, 1 mM Sodium vanadate. Protein extracts were clarified by centrifugation at 14,000 rpm for 20 min at 4° C. Clarified protein samples were incubated overnight with protein A/G coupled agarose beads pre-coated with anti-EphB4 monoclonal antibodies. The IP complexes were washed twice with the same extraction buffer containing 0.1% Triton X100. The immunoprecipitated proteins were solubilized in 1×SDS-PAGE sample loading buffer and separated on 10% SDS-PAGE. For EphB4 receptor activation studies, electroblotted membrane was probed with anti-pTyr specific antibody 4G10 at 1:1000 dilution followed by Protein G-HRP conjugate at 1:5000 dilutions.

Where [4] appears, read: retention of EphrinB2 binding, mouse serum, 37° C., three days.

T1 sequence (P52799 28-229 limits assumed): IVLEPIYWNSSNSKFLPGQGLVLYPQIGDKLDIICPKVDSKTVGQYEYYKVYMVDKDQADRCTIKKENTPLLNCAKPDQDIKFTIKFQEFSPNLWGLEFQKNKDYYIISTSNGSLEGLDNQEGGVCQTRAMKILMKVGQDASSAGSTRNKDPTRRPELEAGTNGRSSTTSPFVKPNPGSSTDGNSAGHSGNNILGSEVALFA

B1: sB4: soluble EphB4 ectodomain protein, biotin labeled through carbohydrate chains; SP column fraction 3 (protein)
chain: LEETLLNTKLETADLKWVTFPQVDGQWEELSGLDEEQHSVRTYEVCDVQRAPGQAHWLRTGWVPRRGAVHVYATLRFTMLECLSLPRAGRSCKETFTVFYYESDADTATALTPAWMENPYIKVDTVAAEHLTRKRPGAEATGKVNVKTLRLGPLSKAGFYLAFQDQGACMALLSLHLFYKKCAQLTVNLTRFPETVPRELVVPVAGSCVVDAVPAPGPSPSLYCREDGQWAEQPVTGCSCAPGFEAAEGNTKCRACAQGTFKPLSGEGSCQPCPANSHSNTIGSAVCQCRVGYFRARTDPRGAPCTTPPSAPRSVVSRLNGSSLHLEWSAPLESGGREDLTYALRCRECRPGGSCAPCGGDLTFDPGPRDLVEPWVVVRGLRPDFTYTFEVTALNGVSSLATGPVPFEPVNVTTDREVPPAVSDIRVTRSSPSSLSLAWAVPRAPSGAVLDYEVKYHEKGAEGPSSVRFLKTSENRAELRGLKRGASYLVQVRARSEAGYGPFGQEHHSQTQLDESEGWREQLA
B1: the “order of binding activity” value in the series with EphrinB2 [1] is recorded as “Unpegylated>monopegylated>polypegylated”. In series [2], the “B2 binding activity lost” value is reported as “less than 10%” and the “order of in vitro stability” value is on record as “monopegylated>unpegylated>polypegylated”.

B2: monopegylated: fraction 2: monopegylated biotinylated sB4, linear PEG-succinimidyl propionate of about 20 kda (conjugate)
chain: LEETLLNTKLETADLKWVTFPQVDGQWEELSGLDEEQHSVRTYEVCDVQRAPGQAHWLRTGWVPRRGAVHVYATLRFTMLECLSLPRAGRSCKETFTVFYYESDADTATALTPAWMENPYIKVDTVAAEHLTRKRPGAEATGKVNVKTLRLGPLSKAGFYLAFQDQGACMALLSLHLFYKKCAQLTVNLTRFPETVPRELVVPVAGSCVVDAVPAPGPSPSLYCREDGQWAEQPVTGCSCAPGFEAAEGNTKCRACAQGTFKPLSGEGSCQPCPANSHSNTIGSAVCQCRVGYFRARTDPRGAPCTTPPSAPRSVVSRLNGSSLHLEWSAPLESGGREDLTYALRCRECRPGGSCAPCGGDLTFDPGPRDLVEPWVVVRGLRPDFTYTFEVTALNGVSSLATGPVPFEPVNVTTDREVPPAVSDIRVTRSSPSSLSLAWAVPRAPSGAVLDYEVKYHEKGAEGPSSVRFLKTSENRAELRGLKRGASYLVQVRARSEAGYGPFGQEHHSQTQLDESEGWREQLA
With B2, the “order of binding activity” value with EphrinB2 [1] is “Unpegylated>monopegylated>polypegylated”. In series [2] (setting [4]), the “order of in vitro stability” value is given as “monopegylated>unpegylated>polypegylated”.

B3: polypegylated: fraction 1: polypegylated biotinylated sB4, linear PEG-succinimidyl propionate of about 20 kda (conjugate)
chain: LEETLLNTKLETADLKWVTFPQVDGQWEELSGLDEEQHSVRTYEVCDVQRAPGQAHWLRTGWVPRRGAVHVYATLRFTMLECLSLPRAGRSCKETFTVFYYESDADTATALTPAWMENPYIKVDTVAAEHLTRKRPGAEATGKVNVKTLRLGPLSKAGFYLAFQDQGACMALLSLHLFYKKCAQLTVNLTRFPETVPRELVVPVAGSCVVDAVPAPGPSPSLYCREDGQWAEQPVTGCSCAPGFEAAEGNTKCRACAQGTFKPLSGEGSCQPCPANSHSNTIGSAVCQCRVGYFRARTDPRGAPCTTPPSAPRSVVSRLNGSSLHLEWSAPLESGGREDLTYALRCRECRPGGSCAPCGGDLTFDPGPRDLVEPWVVVRGLRPDFTYTFEVTALNGVSSLATGPVPFEPVNVTTDREVPPAVSDIRVTRSSPSSLSLAWAVPRAPSGAVLDYEVKYHEKGAEGPSSVRFLKTSENRAELRGLKRGASYLVQVRARSEAGYGPFGQEHHSQTQLDESEGWREQLA
Take B3: in the series with EphrinB2 [1], the “order of binding activity” value is reported as “Unpegylated>monopegylated>polypegylated”. In addition, in series [2] (setting [4]), the “order of in vitro stability” value was “monopegylated>unpegylated>polypegylated”.

B4: CF2: EphB4 ECD version with deleted globular domain, SEQ ID NO:15 (protein)
chain: MELRVLLCWASLAAALEETLLNTKLETQLTVNLTRFPETVPRELVVPVAGSCVVDAVPAPGPSPSLYCREDGQWAEQPVTGCSCAPGFEAAEGNTKCRACAQGTFKPLSGEGSCQPCPANSHSNTIGSAVCQCRVGYFRARTDPRGAPCTTPPSAPRSVVSRLNGSSLHLEWSAPLESGGREDLTYALRCRECRPGGSCAPCGGDLTFDPGPRDLVEPWVVVRGLRPDFTYTFEVTALNGVSSLATGPVPFEPVNVTTDREVPPAVSDIRVTRSSPSSLSLAWAVPRAPSGAWLDYEVKYHEKGAEGPSSVRFLKTSENRAELRGLKRGASYLVQVRARSEAGYGPFGQEHHSQTQLDESEGWREQGGRSSLEGPRFEGKPIPNPLLGLDSTRTGHHHHHH
modifications: Recombinant B4-CF2
As for B4, the “binding the cognate ligand Ephrin B2” value with EphrinB2 [3] is given as “not”. The EphB4 autophosphorylation entry in the series with EphB4 receptor is recorded as “not”.

B5: GCF2: recombinant protein containing the complete ectopic part of EphB4, 6xHis tagged, SEQ ID NO:14 (protein)
chain: MELRVLLCWASLAAALEETLLNTKLETADLKWVTFPQVDGQWEELSGLDEEQHSVRTYEVCEVQRAPGQAHWLRTGWVPRRGAVHVYATLRFTMLECLSLPRAGRSCKETFTVFYYESDADTATALTPAWMENPYIKVDTVAAEHLTRKRPGAEATGKVNVKTLRLGPLSKAGFYLAFQDQGACMALLSLHLFYKKCAQLTVNLTRFPETVPRELVVPVAGSCVVDAVPAPGPSPSLYCREDGQWAEQPVTGCSCAPGFEAAEGNTKCRACAQGTFKPLSGEGSCQPCPANSHSNTIGSAVCQCRVGYFRARTDPRGAPCTTPPSAPRSVVSRLNGSSLHLEWSAPLESGGREDLTYALRCRECRPGGSCAPCGGDLTFDPGPRDLVEPWVVVRGLRPDFTYTFEVTALNGVSSLATGPVPFEPVNVTTDREVPPAVSDIRVTRSSPSSLSLAWAVPRAPSGAWLDYEVKYHEKGAEGPSSVRFLKTSENRAELRGLKRGASYLVQVRARSEAGYGPFGQEHHSQTQLDESEGWREQGSKRAILQIEGKPIPNPLLGLDSTRTGHHHHHH
modifications: Recombinant FL-hB4EC
For the molecule B5, in the series with EphrinB2 [3], the “binding the cognate ligand Ephrin B2” value is reported as “binding”. The EphB4 autophosphorylation entry in the series with EphB4 receptor is on record as “suppresses”.
